This series is described as follows: collision cross section of modified peptide (TIMS, N2, iRT-aligned); higher = larger / more extended gas-phase ion. The method in brief:
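Collision cross section was derived from the Mason-Schamp equation. Each value averages 1–3 technical replicates of the most abundant feature per charge state, measured on a timsTOF Pro/HT in dda-PASEF mode (nitrogen, ~2.4 mbar) after a 120-min nanoflow C18 gradient at 60 °C. Synthetic peptide pools (~100 fmol/µL in 2% acetonitrile/0.1% formic acid, iRT standard spiked 1:40) were identified with MaxQuant, and 1/K0 was calibrated with three reference ions and aligned run-wise to the median iRT peptide deviation.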

[1] abbreviates: charge state: 2, modification: Succinyl.
The mark [2] stands for this setting: charge state: 3, modification: Succinyl.
Where [3] appears, read: charge state: 2, modification: Phospho (Y).
Where [4] appears, read: charge state: 2, modification: Formyl.
Setting [5] is: charge state: 3, modification: Formyl.
The mark [6] stands for this setting: charge state: 2, modification: Nitro (Y).
The mark [7] stands for this setting: charge state: 2, modification: Citrullination (R).
The mark [8] stands for this setting: charge state: 2, modification: Malonyl.
The mark [9] stands for this setting: charge state: 3, modification: Malonyl.
[10] abbreviates: charge state: 2, modification: Dimethyl (K).
Where [11] appears, read: charge state: 3, modification: Dimethyl (K).
Setting [12] is: charge state: 2, modification: Methyl (K).
The mark [13] stands for this setting: charge state: 3, modification: Methyl (K).

± gives the standard deviation.

Turning to “LFVGGIKEDTEEHHLR [_LFVGGIK(Succinyl)EDTEEHHLR_]”, the collision cross section runs as follows: under setting [1], 497.55 Å²; under setting [2], 541.97 ± 1.1 Å².
As to LRQQLQAK [_LR(Methyl (R))QQLQAK_], the collision cross section by setting is: (charge state: 2, modification: Methyl (R)) 356.39 ± 9.6 Å²; (charge state: 3, modification: Methyl (R)) 413.25 ± 2 Å².
LEEVTGKLQVAR [_LEEVTGK(Biotin)LQVAR_]: the collision cross section is, setting by setting: (charge state: 2, modification: Biotin) 414.01 ± 0.23 Å²; (charge state: 3, modification: Biotin) 494.02 ± 0.34 Å².
The sequence “GPPPSYGGSSR [_GPPPSY(Phospho (Y))GGSSR_]” displayed a collision cross section under setting [3] of 343.35 ± 0.65 Å².
For “ANLEKAQAELVGTADEATR [_ANLEK(Formyl)AQAELVGTADEATR_]”, the collision cross section amounted to 471.04 ± 1.4 Å² under setting [4] and 566.89 ± 0.82 Å² under setting [5].
Turning to AQSYAQQLGR [_AQSY(Phospho (Y))AQQLGR_], the collision cross section under setting [3] is recorded as 354.7 ± 0.065 Å².
The sequence DHLSDKESK [_DHLSDK(Formyl)ESK_] displayed a collision cross section under setting [4] of 345.83 ± 0.37 Å².
“ITESVAETAQTIKK [_ITESVAETAQTIK(Crotonyl)K_]”: the collision cross section is recorded as 424.18 ± 0.81 Å² (charge state: 2, modification: Crotonyl) and 514.18 ± 1.1 Å² (charge state: 3, modification: Crotonyl).
Under setting [6], “IFDSEEILAGYK [_IFDSEEILAGY(Nitro (Y))K_]” registered a collision cross section of 395.88 ± 0.18 Å².
In the case of “GLPGPPGPQGESR [_GLP(Hydroxyproline)GPPGPQGESR_]”, the collision cross section (charge state: 2, modification: Hydroxyproline) amounted to 363.77 ± 1.6 Å².
“GRGTSQLAEGATAK [_GR(Citrullination (R))GTSQLAEGATAK_]” came in with a collision cross section under setting [7] of 396.62 ± 1 Å².
Consider “TEVLSPNSKVESK [_TEVLSPNSK(Malonyl)VESK_]”, for which the collision cross section reads like this: under setting [8], 400.58 ± 1.9 Å²; under setting [9], 444.22 ± 3.4 Å².
In the case of “ALASIDSKLNQAK [_ALASIDSK(Dimethyl (K))LNQAK_]”, the collision cross section runs as follows: under setting [10], 412.97 ± 1.1 Å²; under setting [11], 457.79 ± 2.1 Å².
DLEEAEEYK [_DLEEAEEY(Nitro (Y))K_] showed a collision cross section under setting [6] of 368.75 ± 2.1 Å².
Regarding “IHVQSSSDSSDEPAEKR [_IHVQSSSDSSDEPAEK(Succinyl)R_]”, the collision cross section runs as follows: under setting [1], 452.62 ± 0.81 Å²; under setting [2], 507.09 ± 1.9 Å².
On to “VYIASSSGSTAIKK [_VYIASSSGSTAIK(Dimethyl (K))K_]”, for which the collision cross section reads like this: under setting [10], 434.74 ± 1.3 Å²; under setting [11], 497.25 ± 0.75 Å².
“FGTINIVHPKLGSYTK [_FGTINIVHPK(Formyl)LGSYTK_]”: the collision cross section is, setting by setting: under setting [4], 468.22 ± 1.4 Å²; under setting [5], 546.15 ± 1.5 Å².
Sequence “PGTPAGYGRGR [_PGTPAGYGR(Citrullination (R))GR_]” gave a collision cross section under setting [7] of 345.81 ± 4.8 Å² and a collision cross section (charge state: 3, modification: Citrullination (R)) of 431.14 Å².
On to “ITESVAETAQTIKK [_ITESVAETAQTIK(Malonyl)K_]”, for which the collision cross section is 420.49 ± 0.57 Å² under setting [8] and 509.94 ± 1.1 Å² under setting [9].
As to “VQGGALEDSQLVAGVAFKK [_VQGGALEDSQLVAGVAFK(Methyl (K))K_]”, the collision cross section was determined as 497.72 Å² under setting [12] and 546.3 ± 1.2 Å² under setting [13].
For the sequence SPDEAYAIAKK [_SPDEAYAIAK(Propionyl)K_], the collision cross section stood at 373.53 ± 0.94 Å² (charge state: 2, modification: Propionyl) and 448.43 ± 0.74 Å² (charge state: 3, modification: Propionyl).
Take “DLSTVEALQNLKNLK [_DLSTVEALQNLK(Succinyl)NLK_]”: the collision cross section was found to be 483.86 ± 0.78 Å² under setting [1] and 537.21 Å² under setting [2].
Turning to “FDDTNPEKEEAK [_FDDTNPEK(Methyl (K))EEAK_]”, the collision cross section stood at 400.43 ± 1.8 Å² under setting [12] and 498.56 ± 1.5 Å² under setting [13].
Under setting [13], “IHNAENIQPGEQKYEYK [_IHNAENIQPGEQK(Methyl (K))YEYK_]” yielded a collision cross section of 526.19 ± 0.79 Å².
In the case of “GAEKTEVAEPR [_GAEK(Gluratylation)TEVAEPR_]”, for the setting “charge state: 2, modification: Glutarylation”, the collision cross section is 362.79 ± 0.71 Å².

Source of the values: the supplement of paper PMC10598134.
